This note sets out measurements from patent publication US20190185562A1.

The target in test [1] is full length human GP130 (leucine at position 2 changed to valine) on HEK293/Stat3-luc/gp130-2X Sort cells (human) (UniProt P40189). In words: FACS, 200 nM antibody, HEK293/gp130 2X Sort cells. On the technique in general: In flow cytometry, cells or beads pass a laser one at a time.
The target in test [2] is extracellular domain of human LEPR, GPI-anchored on HEK293/hLEPR-GPI cells (human) (UniProt P48357). In words: FACS, 200 nM antibody, HEK293/hLEPR-GPI cells, 1 µM Leptin present.
extracellular domain of human LEPR, GPI-anchored on HEK293/hLEPR-GPI cells (human), sequence (P48357 22-839 limits assumed): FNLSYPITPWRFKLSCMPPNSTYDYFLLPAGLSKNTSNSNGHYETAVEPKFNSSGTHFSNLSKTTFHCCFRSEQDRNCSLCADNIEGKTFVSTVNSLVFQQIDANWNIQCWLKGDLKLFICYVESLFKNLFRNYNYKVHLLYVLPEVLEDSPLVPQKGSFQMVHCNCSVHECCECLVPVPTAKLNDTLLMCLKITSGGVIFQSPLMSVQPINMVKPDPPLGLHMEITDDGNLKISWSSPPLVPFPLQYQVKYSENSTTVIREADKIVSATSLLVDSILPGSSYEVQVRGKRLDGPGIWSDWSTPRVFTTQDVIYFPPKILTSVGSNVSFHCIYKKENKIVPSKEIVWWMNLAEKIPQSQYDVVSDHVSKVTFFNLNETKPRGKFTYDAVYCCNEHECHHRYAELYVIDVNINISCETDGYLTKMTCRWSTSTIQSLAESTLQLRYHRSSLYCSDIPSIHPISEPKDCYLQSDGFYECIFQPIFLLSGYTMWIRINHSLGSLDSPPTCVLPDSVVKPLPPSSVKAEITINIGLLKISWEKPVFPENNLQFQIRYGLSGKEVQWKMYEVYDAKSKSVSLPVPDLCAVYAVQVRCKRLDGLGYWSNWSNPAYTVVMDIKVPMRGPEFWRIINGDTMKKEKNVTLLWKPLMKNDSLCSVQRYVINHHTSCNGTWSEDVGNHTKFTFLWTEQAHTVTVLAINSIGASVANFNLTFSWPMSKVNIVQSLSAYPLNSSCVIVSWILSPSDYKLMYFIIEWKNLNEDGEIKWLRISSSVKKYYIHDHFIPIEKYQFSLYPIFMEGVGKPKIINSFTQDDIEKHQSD
Test [3] shares this target. As to the kind of experiment: FACS, 200 nM antibody, HEK293/hLEPR-GPI cells, No Leptin.
The target is the same in test [4]. As to the kind of experiment: FACS, secondary antibody only, HEK293/hLEPR-GPI cells, 1 µM Leptin present.
Test [5] concerns the target full length human GP130 (leucine at position 2 changed to valine) on HEK293/Stat3-luc/gp130-2X Sort cells (human) (UniProt P40189). In words: FACS, secondary antibody only, HEK293/gp130 2X Sort cells.
The target in test [6] is extracellular domain of human LEPR, GPI-anchored on HEK293/hLEPR-GPI cells (human) (UniProt P48357). In words: FACS, secondary antibody only, HEK293/hLEPR-GPI cells, No Leptin.
Test [7] has as its target gp130 expressed endogenously on IMR-32/STAT3-Luc cells (human) (UniProt P40189). As to the kind of experiment: FACS, secondary antibody alone, IMR-32/Stat3-luc cells, no hGP130.mmh.
Test [8] deals with full length (FL) human gp130 over-expressed on HEK293/Stat3-luc/gp130-2X Sort cells (human) (UniProt P40189). As to the kind of experiment: FACS, secondary antibody alone, 293/Stat3-luc/GP130 2X sort cells.
full length (FL) human gp130 over-expressed on HEK293/Stat3-luc/gp130-2X Sort cells (human), sequence (P40189 23-918): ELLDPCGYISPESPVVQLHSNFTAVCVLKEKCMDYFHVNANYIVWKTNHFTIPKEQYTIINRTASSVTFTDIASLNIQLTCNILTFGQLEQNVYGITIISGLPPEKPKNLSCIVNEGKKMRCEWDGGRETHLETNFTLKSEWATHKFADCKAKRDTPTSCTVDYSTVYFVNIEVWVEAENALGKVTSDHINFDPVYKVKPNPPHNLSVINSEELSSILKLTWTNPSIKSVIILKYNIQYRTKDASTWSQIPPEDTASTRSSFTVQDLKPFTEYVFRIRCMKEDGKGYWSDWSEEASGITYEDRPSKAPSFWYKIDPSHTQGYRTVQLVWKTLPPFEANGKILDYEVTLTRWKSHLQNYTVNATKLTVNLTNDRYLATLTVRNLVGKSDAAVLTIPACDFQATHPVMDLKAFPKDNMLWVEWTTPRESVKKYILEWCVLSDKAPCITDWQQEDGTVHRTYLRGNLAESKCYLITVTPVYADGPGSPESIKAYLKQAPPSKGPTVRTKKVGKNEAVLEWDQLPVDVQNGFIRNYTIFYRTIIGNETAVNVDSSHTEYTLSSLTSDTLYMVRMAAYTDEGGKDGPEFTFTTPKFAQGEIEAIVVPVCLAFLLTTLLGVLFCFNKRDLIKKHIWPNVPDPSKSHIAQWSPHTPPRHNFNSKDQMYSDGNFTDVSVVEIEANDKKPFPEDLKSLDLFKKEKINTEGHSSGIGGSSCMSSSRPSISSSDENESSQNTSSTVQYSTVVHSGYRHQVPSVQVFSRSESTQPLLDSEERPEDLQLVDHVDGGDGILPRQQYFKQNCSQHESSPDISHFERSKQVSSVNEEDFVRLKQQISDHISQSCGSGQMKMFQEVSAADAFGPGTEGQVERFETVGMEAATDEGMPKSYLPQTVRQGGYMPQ
For test [9], the target named is gp130 expressed endogenously on IMR-32/STAT3-Luc cells (human) (UniProt P40189). In words: FACS, secondary antibody alone, IMR-32/Stat3-luc cells, 1 uM hGP130.mmh present.
gp130 expressed endogenously on IMR-32/STAT3-Luc cells (human), sequence (P40189 23-918): as above
Test [10] has the same target. In words: cell-based or functional assay.

full length human GP130 (leucine at position 2 changed to valine) on HEK293/Stat3-luc/gp130-2X Sort cells (human), sequence (P40189 23-918): as above

Isotype Control (antibody): the Binding Ratio: Normalized to Unstained Sample of Each Cell Line (FL4-A) in test [1] worked out at 2; in test [2], 3; in test [3], 3.
Take Secondary antibody alone: the figures for the Binding Ratio: Normalized to Unstained Sample of Each Cell Line (FL4-A) in [4], in [5] and in test [6] were 2, 1 and 3, respectively.
In the case of a-h 2″ alone (antibody), the MFI - Normalized to Unstained Control in [7] was found to be 4; in [8], 2; in [9], 8.
The substance “human Leukemia Inhibitory Factor (from UniProt P15018 23-202) (ligand)” registered an EC50 of activation of IMR-32/STAT3-luc cells (STAT3-luciferase) in [10] of 0.023 nM.
